One assay addresses T1, human FcγRIIa type R (human, UniProt P12318 36-217).
T1 construct: also called FcγRIIaR; FcγRIIa(R)
T1 chain: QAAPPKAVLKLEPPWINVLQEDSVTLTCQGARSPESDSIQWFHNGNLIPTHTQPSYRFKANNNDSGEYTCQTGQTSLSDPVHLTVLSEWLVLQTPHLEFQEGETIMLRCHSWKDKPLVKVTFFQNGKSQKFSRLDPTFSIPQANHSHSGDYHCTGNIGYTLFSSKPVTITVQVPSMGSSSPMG
Nature of the assay: SPR (Biacore), binding amount relative to IL6R-BF648/IL6R-L = 100. Background: In SPR one partner is held on a chip, and binding of the other changes the refractive index at the surface.

A further assay addresses T2, human FcγRIIa type H (human, UniProt P12318 36-217).
T2 construct: also called FcγRIIaH; FcγRIIa(H)
T2 sequence: T1 chain with R133H
Described as above.

The target in a further assay is T3, human FcγRIIIa type V (human, UniProt P08637 17-208, limits assumed).
T3 construct: also called FcγRIIIaV; FcγRIIIa(V)
T3 sequence (P08637 other isoform, or with tags, fused parts or gaps limits assumed): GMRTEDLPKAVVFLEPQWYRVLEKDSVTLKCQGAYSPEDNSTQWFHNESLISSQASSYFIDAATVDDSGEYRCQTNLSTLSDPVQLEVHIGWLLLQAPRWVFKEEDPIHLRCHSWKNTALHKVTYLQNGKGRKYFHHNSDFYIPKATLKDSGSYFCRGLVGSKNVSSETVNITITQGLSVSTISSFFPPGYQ
The description is as above.

The next assay has as its target T4, human FcγRIa (human, UniProt P12314 16-292, limits assumed).
T4 construct: also called CD64
Described as above.

The target in the next assay is T5, human FcγRIIb (human, UniProt P31994 43-217, limits assumed).
T5 construct: also called FcγIIB
T5 sequence: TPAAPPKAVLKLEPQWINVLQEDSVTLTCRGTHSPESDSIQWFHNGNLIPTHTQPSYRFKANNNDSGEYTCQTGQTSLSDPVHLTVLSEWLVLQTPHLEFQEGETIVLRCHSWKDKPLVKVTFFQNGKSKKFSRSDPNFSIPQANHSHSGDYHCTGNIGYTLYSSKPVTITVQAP
The assay is described as above.

The target in another assay is T6, FcγRIIIa type V (human, UniProt P08637 17-208, limits assumed).
T6 construct: also called FcγRIIIaV; FcgRIIIaV
T6 sequence (P08637 other isoform, or with tags, fused parts or gaps limits assumed): as the sequence (P08637 other isoform, or with tags, fused parts or gaps limits assumed) above
Nature of the assay: SPR (Biacore), FcγR over captured antibody.

In the next assay the target is T7, FcγRIIa type R (human, UniProt P12318 36-217).
T7 construct: also called FcγRIIaR; FcgRIIaR
T7 chain: T1 chain
The assay can be described thus: SPR (Biacore), FcγR over captured antibody.

In the next assay the target is T8, FcγRIIb (human, UniProt P31994 43-217, limits assumed).
T8 construct: also called FcgRIIb; FcγIIB
T8 sequence: T5 sequence
The assay can be described thus: SPR (Biacore), FcγR over captured antibody.

In the next assay the target is T9, FcγRIa (human, UniProt P12314 16-292, limits assumed).
T9 construct: also called FcgRIa; CD64
T9 sequence (P12314 16-292 limits assumed): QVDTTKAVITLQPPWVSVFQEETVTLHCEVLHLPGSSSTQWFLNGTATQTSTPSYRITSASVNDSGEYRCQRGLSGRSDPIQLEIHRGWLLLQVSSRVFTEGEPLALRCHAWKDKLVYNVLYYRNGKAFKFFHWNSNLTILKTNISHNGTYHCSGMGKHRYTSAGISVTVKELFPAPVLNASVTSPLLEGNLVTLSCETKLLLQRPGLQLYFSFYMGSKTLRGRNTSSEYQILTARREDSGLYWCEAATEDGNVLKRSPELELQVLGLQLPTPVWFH
Nature of the assay: SPR (Biacore), FcγR over captured antibody.

The next assay concerns the target T10, FcγRIIa type H (human, UniProt P12318 36-217).
T10 construct: also called FcγRIIaH; FcγRIIH
T10 sequence: T1 chain with R133H
The assay can be described thus: SPR (Biacore), FcγR over captured antibody.

As a reminder, the Kd is the constant that tells how readily two partners part at equilibrium.

Numbering of substitutions follows the chain as printed. In names and notes the source's numbering stands.

T4 sequence (P12314 16-292 limits assumed): as above

B1: IL6R-BP110/IL6R-L (antibody, human IgG1)
heavy: QVQLQESGPGLVKPSETLSLTCAVSGHSISHDHAWSWVRQPPGEGLEWIGFISYSGITNYNPSLQGRVTISRDNSKNTLYLQMNSLRAEDTAVYYCARSLARTTAMDYWGEGTLVTVSSASTKGPSVFPLAPSSKSTSGGTAALGCLVKDYFPEPVTVSWNSGALTSGVHTFPAVLQSSGLYSLSSVVTVPSSSLGTQTYICNVNHKPSNTKVDKKVEPKSCDKTHTCPPCPAPELLGGDSVFLFPPKPKDTLMISRTPEVTCVVVDVSNEDPEVKFNWYVDGVEVHNAKTKPREEQYNSTYRVVSVLTVLHQDWLNGKEYKCKVSNKALPAPIEKTISKAKGQPREPQVYTLPPSRDELTKNQVSLTCLVKGFYPSDIAVEWESNGQPENNYKTTPPVLDSDGSFFLYSKLTVDKSRWQQGNVFSCSVMHEALHNHYTQESLSLSP
light: DIQMTQSPSSLSASVGDRVTITCRASQDISSYLNWYQQKPGKAPKLLIYYTSRLHSGVPSRFSGSGSGTDFTFTISSLQPEDIATYYCQQGNTLPYTFGQGTKVEIK
notes: Alteration introduced into IL6R-B3; also called P238D/H268N
With B1, the relative binding with human FcγRIIa type R was 128; with human FcγRIIa type H, 127; with human FcγRIIIa type V, 127; with human FcγRIa it was 105; with human FcγRIIb it was 101.

B2: IL6R-BP120/IL6R-L (antibody, human IgG1)
heavy: B1 heavy with N270H, K328E
light: B1 light
notes: IgG1; Fc variant of IL6R-B3; copies: 2 + 2
As for B2, the Kd with FcγRIIIa type V came to 79 µM; with FcγRIIa type R it was 9.6 µM; with FcγRIIb, 1 µM; with FcγRIa it was 0.0066 µM; in the assay with FcγRIIa type H, 65 µM.

B3: IL6R-BP112/IL6R-L (antibody, human IgG1)
heavy: B1 heavy with N270H, P273G
light: B1 light
notes: as for B2
In the case of B3, the Kd with FcγRIIIa type V is 69 µM; in the assay with FcγRIIa type R, 3.5 µM; in the assay with FcγRIIb, 0.32 µM; with FcγRIa, 0.0065 µM; with FcγRIIa type H, 35 µM.

B4: IL6R-BP911/IL6R-L (antibody, human IgG1)
heavy: B1 heavy with N270H, A332K
light: B1 light
notes: as for B2
Regarding B4, the Kd in the assay with FcγRIIIa type V stood at 58 µM; with FcγRIIa type R, 16 µM; with FcγRIIb, 0.89 µM; with FcγRIa, 0.049 µM; in the assay with FcγRIIa type H, 37 µM.

B5: IL6R-BP116/IL6R-L (antibody, human IgG1)
heavy: B1 heavy with N270H, K328T
light: B1 light
notes: Alteration introduced into IL6R-B3; also called P238D/K326T
As for B5, the relative binding with human FcγRIIa type R worked out at 126; with human FcγRIIa type H it was 110; with human FcγRIIIa type V, 114; in the assay with human FcγRIa it was 110; in the assay with human FcγRIIb it was 108.

B6: IL6R-BP078/IL6R-L (antibody, human IgG1)
heavy: B1 heavy with N270H, A332M
light: B1 light
notes: as for B2
As to B6, the Kd was 78 µM with FcγRIIIa type V; 15 µM with FcγRIIa type R; 1.1 µM with FcγRIIb; 0.0082 µM with FcγRIa; 45 µM in the assay with FcγRIIa type H.

B7: IL6R-BP126/IL6R-L (antibody, human IgG1)
heavy: B1 heavy with N270H, K328L
light: B1 light
notes: as for B2
Take B7: the Kd with FcγRIIIa type V was found to be 56 µM; with FcγRIIa type R it was 11 µM; with FcγRIIb, 1.4 µM; in the assay with FcγRIa, 0.0074 µM; with FcγRIIa type H, 45 µM.

B8: IL6R-BP106/IL6R-L (antibody, human IgG1)
heavy: B1 heavy with N270D
light: B1 light
notes: as for B2
Turning to B8, the Kd with FcγRIIIa type V was found to be 55 µM; with FcγRIIa type R it was 11 µM; in the assay with FcγRIIb it was 0.93 µM; with FcγRIa, 0.004 µM; in the assay with FcγRIIa type H it was 36 µM.

B9: IL6R-BP912/IL6R-L (antibody, human IgG1)
heavy: B1 heavy with N270H, A332R
light: B1 light
notes: Alteration introduced into IL6R-B3; also called P238D/A330R
With B9, the relative binding was 81 in the assay with human FcγRIIa type R; 93 in the assay with human FcγRIIa type H; 97 with human FcγRIIIa type V; 60 with human FcγRIa; 103 with human FcγRIIb.

B10: IL6R-BP117/IL6R-L (antibody, human IgG1)
heavy: B1 heavy with N270H, K328D
light: B1 light
notes: as for B2
Regarding B10, the Kd turned out to be 67 µM in the assay with FcγRIIIa type V; 9.2 µM with FcγRIIa type R; 0.8 µM with FcγRIIb; 0.0041 µM with FcγRIa; 41 µM with FcγRIIa type H.

B11: IL6R-BP119/IL6R-L (antibody, human IgG1)
heavy: B1 heavy with N270H, K328M
light: B1 light
notes: Alteration introduced into IL6R-B3; also called P238D/K326M
As to B11, the relative binding with human FcγRIIa type R is 181; with human FcγRIIa type H it was 133; in the assay with human FcγRIIIa type V it was 145; with human FcγRIa, 117; in the assay with human FcγRIIb, 110.

B12: IL6R-BP118/IL6R-L (antibody, human IgG1)
heavy: B1 heavy with N270H, K328S
light: B1 light
notes: Alteration introduced into IL6R-B3; also called P238D/K326S
For the molecule B12, the relative binding in the assay with human FcγRIIa type R amounted to 132; with human FcγRIIa type H, 128; in the assay with human FcγRIIIa type V, 144; in the assay with human FcγRIa it was 101; with human FcγRIIb it was 104.

B13: IL6R-BP107/IL6R-L (antibody, human IgG1)
heavy: B1 heavy with N270E
light: B1 light
notes: as for B2
B13: the Kd in the assay with FcγRIIIa type V stood at 63 µM; with FcγRIIa type R it was 12 µM; in the assay with FcγRIIb, 0.93 µM; in the assay with FcγRIa it was 0.0015 µM; with FcγRIIa type H it was 52 µM.

B14: IL6R-BP121/IL6R-L (antibody, human IgG1)
heavy: B1 heavy with N270H, K328Q
light: B1 light
notes: Alteration introduced into IL6R-B3; also called P238D/K326Q
B14: the relative binding with human FcγRIIa type R is 155; with human FcγRIIa type H it was 135; with human FcγRIIIa type V, 157; with human FcγRIa it was 118; in the assay with human FcγRIIb, 113.

(Values after patent US20200199241A1 (Chugai, published 2020).)
